Laboratory results: PMC5579238, “MAPK1 of Leishmania donovani interacts and phosphorylates HSP70 and HSP90 subunits of foldosome complex” (Scientific Reports, 2017)
Structures can show the parent of a compound that is named as a salt. Values belong to the compound of their own block, whether it stands above or below them.

Assays:
LdMAPK1 = target: T1, LdMAPK1 (Leishmania donovani, UniProt E2CWC1); assay: Kinase-Glo Plus ATP consumption assay with recombinant HSP90 or HSP70 as substrate; Dixon plot; format: biochemical
T1 construct: GST fused rLdMAPK1 (pGEX-KG-LdMAPK1), expressed in E. coli
T1 sequence (E2CWC1 1-358): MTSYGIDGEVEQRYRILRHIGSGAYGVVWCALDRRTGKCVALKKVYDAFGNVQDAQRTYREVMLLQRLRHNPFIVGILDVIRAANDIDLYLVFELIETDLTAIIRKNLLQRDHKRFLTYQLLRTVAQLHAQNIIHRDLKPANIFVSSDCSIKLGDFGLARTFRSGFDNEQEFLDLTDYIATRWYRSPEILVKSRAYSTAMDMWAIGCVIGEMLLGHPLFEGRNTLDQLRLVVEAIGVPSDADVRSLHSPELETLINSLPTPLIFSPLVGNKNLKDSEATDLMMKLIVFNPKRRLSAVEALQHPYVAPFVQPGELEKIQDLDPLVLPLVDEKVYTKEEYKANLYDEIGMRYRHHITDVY

[1] = target: Leishmania donovani MAPK1 (L. donovani (endogenous in promastigotes))

Chain of HSP70 (P17804 whole entry, the tested form may be a part): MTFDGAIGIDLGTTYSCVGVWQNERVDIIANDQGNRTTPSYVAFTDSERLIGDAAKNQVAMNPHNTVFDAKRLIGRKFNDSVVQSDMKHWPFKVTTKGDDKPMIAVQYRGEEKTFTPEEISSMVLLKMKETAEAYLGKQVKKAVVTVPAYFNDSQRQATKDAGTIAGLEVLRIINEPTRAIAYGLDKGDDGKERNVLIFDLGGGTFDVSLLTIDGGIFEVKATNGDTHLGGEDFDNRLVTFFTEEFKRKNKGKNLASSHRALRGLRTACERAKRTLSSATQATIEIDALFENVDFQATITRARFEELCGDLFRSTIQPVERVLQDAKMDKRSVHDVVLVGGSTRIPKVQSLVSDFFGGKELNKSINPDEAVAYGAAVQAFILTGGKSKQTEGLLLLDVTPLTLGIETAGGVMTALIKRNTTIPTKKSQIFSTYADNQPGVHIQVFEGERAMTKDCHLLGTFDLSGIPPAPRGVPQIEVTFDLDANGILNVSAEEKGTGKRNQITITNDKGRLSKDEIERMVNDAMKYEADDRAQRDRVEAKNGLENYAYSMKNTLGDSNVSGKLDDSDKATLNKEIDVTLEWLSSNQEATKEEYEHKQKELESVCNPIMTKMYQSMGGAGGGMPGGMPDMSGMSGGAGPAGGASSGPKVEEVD

Ki (LdMAPK1): 2720 ± 140 nM
Compound: CCOc1ccc(C=C2SC(=O)N(CCN)C2=O)cc1 [AMTZD, 3-(2-aminoethyl)-5-([4-ethoxyphenyl]methylene)-2,4-thiazolidinedione HCl]

Compound: HSP70 (from UniProt P17804 1-653) (natural protein)
Km of the in vitro kinase assay (ATP consumption, Kinase-Glo) of recombinant GST-LdMAPK1 with recombinant His-tagged HSP70 as substrate [1]: 0.0176 µM

Compound: HSP90 (natural protein)
Km of the in vitro kinase assay (ATP consumption, Kinase-Glo) of recombinant GST-LdMAPK1 with recombinant His-tagged HSP90 as substrate [1]: 0.0167 µM
